Patent US11325966

Legend:
Test in all cases: cell-based or functional assay
[1] = target: HIV-1 Env of pseudovirus BJOX015000.11.5 (HIV-1)
[2] = target: HIV-1 Env of pseudovirus T250-4 (HIV-1)
[3] = target: HIV-1 Env of pseudovirus 62357_14_D3_4589 (HIV-1)
[4] = target: HIV-1 Env of pseudovirus CNE53 (HIV-1)
[5] = target: HIV-1 Env of pseudovirus BJOX010000.06.2 (HIV-1)
[6] = target: HIV-1 Env of pseudovirus Q769.d22 (HIV-1)
[7] = target: HIV-1 Env of pseudovirus 7030102001E5(Rev-) (HIV-1)
[8] = target: HIV-1 Env of pseudovirus QH0692.42 (HIV-1)
[9] = target: HIV-1 Env of pseudovirus REJO4541.67 (HIV-1)
[10] = target: HIV-1 Env of pseudovirus X2088_c9 (HIV-1)
[11] = target: HIV-1 Env of pseudovirus HIV-001428-2.42 (HIV-1)
[12] = target: HIV-1 Env of pseudovirus 3415.v1.c1 (HIV-1)
[13] = target: HIV-1 Env of pseudovirus ZM109F.PB4 (HIV-1)
[14] = target: HIV-1 Env of pseudovirus 0815.v3.c3 (HIV-1)
[15] = target: HIV-1 Env of pseudovirus BJOX009000.02.4 (HIV-1)
[16] = target: HIV-1 Env of pseudovirus 235-47 (HIV-1)
[17] = target: HIV-1 Env of pseudovirus RHPA4259.7 (HIV-1)
[18] = target: HIV-1 Env of pseudovirus C1080.c03 (HIV-1)
[19] = target: HIV-1 Env of pseudovirus 6240_08_TA5_4622 (HIV-1)
[20] = target: HIV-1 Env of pseudovirus 6540.v4.c1 (HIV-1)
[21] = target: HIV-1 Env of pseudovirus TRO.11 (HIV-1)
[22] = target: HIV-1 Env of pseudovirus 928-28 (HIV-1)
[23] = target: HIV-1 Env of pseudovirus 231966.c02 (HIV-1)
[24] = target: HIV-1 Env of pseudovirus Ce1086_B2 (HIV-1)
[25] = target: HIV-1 Env of pseudovirus BF1266.431a (HIV-1)
[26] = target: HIV-1 Env of pseudovirus BJOX028000.10.3 (HIV-1)
[27] = target: HIV-1 Env of pseudovirus C3347.c11 (HIV-1)
[28] = target: HIV-1 Env of pseudovirus Q23.17 (HIV-1)
[29] = target: HIV-1 Env of pseudovirus Ce0393_C3 (HIV-1)
[30] = target: HIV-1 Env of pseudovirus PVO.4 (HIV-1)
[31] = target: HIV-1 Env of pseudovirus 6952.v1.c20 (HIV-1)
[32] = target: HIV-1 Env of pseudovirus CNE5 (HIV-1)
[33] = target: HIV-1 Env of pseudovirus T255-34 (HIV-1)
[34] = target: HIV-1 Env of pseudovirus 1012_11_TC21_3257 (HIV-1)
[35] = target: HIV-1 Env of pseudovirus 249M B10 (HIV-1)
[36] = target: HIV-1 Env of pseudovirus ZM214M.PL15 (HIV-1)
[37] = target: HIV-1 Env of pseudovirus 6545.v4.c1 (HIV-1)
[38] = target: HIV-1 Env of pseudovirus 3365.v2.c2 (HIV-1)
[39] = target: HIV-1 Env of pseudovirus ZM247v1(Rev-) (HIV-1)

B1: 10-1074 (antibody, V domains shown)
VH: QVQLQESGPGLVKPSETLSVTCSVSGDSMNNYYWTWIRQSPGKGLEWIGYISDRESATYNPSLNSRVVISRDTSKNQLSLKLNSVTPADTAVYYCATARRGQRIYGVVSFGEFFYYYSMDVWGKGTTVTVSS
VL: SYVRPLSVALGETARISCGRQALGSRAVQWYQHRPGQAPILLIYNNQDRPSGIPERFSGTPDINFGTRATLTISGVEAGDEADYYCHMWDSRSGFSWSFGGATRLTVL
IC50 in TZM-bl assay [1]: > 10 mg/L | IC80 in TZM-bl assay [1]: > 10 mg/L | IC50 in TZM-bl assay [2]: 0.002 mg/L | IC80 in TZM-bl assay [2]: 0.005 mg/L | IC50 in TZM-bl assay [3]: > 10 mg/L | IC80 in TZM-bl assay [3]: > 10 mg/L | IC50 in TZM-bl assay [4]: 0.013 mg/L | IC80 in TZM-bl assay [4]: 0.058 mg/L | IC50 in TZM-bl assay [5]: > 10 mg/L | IC80 in TZM-bl assay [5]: > 10 mg/L | IC50 in TZM-bl assay [6]: > 10 mg/L | IC80 in TZM-bl assay [6]: > 10 mg/L | IC50 in TZM-bl assay [7]: 0.009 mg/L | IC80 in TZM-bl assay [7]: 0.019 mg/L | IC50 in TZM-bl assay [8]: 0.106 mg/L | IC80 in TZM-bl assay [8]: 0.383 mg/L | IC50 in TZM-bl assay [9]: > 10 mg/L | IC80 in TZM-bl assay [9]: > 10 mg/L | IC50 in TZM-bl assay [10]: 0.003 mg/L | IC80 in TZM-bl assay [10]: 0.01 mg/L | IC50 in TZM-bl assay [11]: 0.035 mg/L | IC80 in TZM-bl assay [11]: 0.126 mg/L | IC50 in TZM-bl assay [12]: > 10 mg/L | IC80 in TZM-bl assay [12]: > 10 mg/L | IC50 in TZM-bl assay [13]: > 10 mg/L | IC80 in TZM-bl assay [13]: > 10 mg/L | IC50 in TZM-bl assay [14]: 0.043 mg/L | IC80 in TZM-bl assay [14]: 0.197 mg/L | IC50 in TZM-bl assay [15]: > 10 mg/L | IC80 in TZM-bl assay [15]: > 10 mg/L | IC50 in TZM-bl assay [16]: 0.058 mg/L | IC80 in TZM-bl assay [16]: 0.224 mg/L | IC50 in TZM-bl assay [17]: 0.023 mg/L | IC80 in TZM-bl assay [17]: 0.083 mg/L | IC50 in TZM-bl assay [18]: > 10 mg/L | IC80 in TZM-bl assay [18]: > 10 mg/L | IC50 in TZM-bl assay [19]: 0.038 mg/L | IC80 in TZM-bl assay [19]: 0.131 mg/L | IC50 in TZM-bl assay [20]: > 10 mg/L | IC80 in TZM-bl assay [20]: > 10 mg/L | IC50 in TZM-bl assay [21]: 0.011 mg/L | IC80 in TZM-bl assay [21]: 0.039 mg/L | IC50 in TZM-bl assay [22]: 0.616 mg/L | IC80 in TZM-bl assay [22]: 2.4 mg/L | IC50 in TZM-bl assay [23]: > 10 mg/L | IC80 in TZM-bl assay [23]: > 10 mg/L | IC50 in TZM-bl assay [24]: > 10 mg/L | IC80 in TZM-bl assay [24]: > 10 mg/L | IC50 in TZM-bl assay [25]: > 10 mg/L | IC80 in TZM-bl assay [25]: > 10 mg/L | IC50 in TZM-bl assay [26]: > 10 mg/L | IC80 in TZM-bl assay [26]: > 10 mg/L | IC50 in TZM-bl assay [27]: > 10 mg/L | IC80 in TZM-bl assay [27]: > 10 mg/L | IC50 in TZM-bl assay [28]: 0.005 mg/L | IC80 in TZM-bl assay [28]: 0.015 mg/L | IC50 in TZM-bl assay [29]: > 10 mg/L | IC80 in TZM-bl assay [29]: > 10 mg/L | IC50 in TZM-bl assay [30]: 0.072 mg/L | IC80 in TZM-bl assay [30]: 0.252 mg/L | IC50 in TZM-bl assay [31]: 0.023 mg/L | IC80 in TZM-bl assay [31]: 0.086 mg/L | IC50 in TZM-bl assay [32]: > 10 mg/L | IC80 in TZM-bl assay [32]: > 10 mg/L | IC50 in TZM-bl assay [33]: > 10 mg/L | IC80 in TZM-bl assay [33]: > 10 mg/L | IC50 in TZM-bl assay [34]: 0.011 mg/L | IC80 in TZM-bl assay [34]: 0.047 mg/L | IC50 in TZM-bl assay [35]: > 10 mg/L | IC80 in TZM-bl assay [35]: > 10 mg/L | IC50 in TZM-bl assay [36]: 0.415 mg/L | IC80 in TZM-bl assay [36]: 2.97 mg/L | IC50 in TZM-bl assay [37]: > 10 mg/L | IC80 in TZM-bl assay [37]: > 10 mg/L | IC50 in TZM-bl assay [38]: 0.057 mg/L | IC80 in TZM-bl assay [38]: 0.2 mg/L | IC50 in TZM-bl assay [39]: 0.042 mg/L | IC80 in TZM-bl assay [39]: 0.146 mg/L
